This is an account of results in patent US20230331827A1 (MAXION THERAPEUTICS, published 2023).

The target of the assay is human cMET (human, UniProt P08581 25-932). In words: phage TRF on cMET.
Sequence of human cMET (P08581 25-932 limits assumed): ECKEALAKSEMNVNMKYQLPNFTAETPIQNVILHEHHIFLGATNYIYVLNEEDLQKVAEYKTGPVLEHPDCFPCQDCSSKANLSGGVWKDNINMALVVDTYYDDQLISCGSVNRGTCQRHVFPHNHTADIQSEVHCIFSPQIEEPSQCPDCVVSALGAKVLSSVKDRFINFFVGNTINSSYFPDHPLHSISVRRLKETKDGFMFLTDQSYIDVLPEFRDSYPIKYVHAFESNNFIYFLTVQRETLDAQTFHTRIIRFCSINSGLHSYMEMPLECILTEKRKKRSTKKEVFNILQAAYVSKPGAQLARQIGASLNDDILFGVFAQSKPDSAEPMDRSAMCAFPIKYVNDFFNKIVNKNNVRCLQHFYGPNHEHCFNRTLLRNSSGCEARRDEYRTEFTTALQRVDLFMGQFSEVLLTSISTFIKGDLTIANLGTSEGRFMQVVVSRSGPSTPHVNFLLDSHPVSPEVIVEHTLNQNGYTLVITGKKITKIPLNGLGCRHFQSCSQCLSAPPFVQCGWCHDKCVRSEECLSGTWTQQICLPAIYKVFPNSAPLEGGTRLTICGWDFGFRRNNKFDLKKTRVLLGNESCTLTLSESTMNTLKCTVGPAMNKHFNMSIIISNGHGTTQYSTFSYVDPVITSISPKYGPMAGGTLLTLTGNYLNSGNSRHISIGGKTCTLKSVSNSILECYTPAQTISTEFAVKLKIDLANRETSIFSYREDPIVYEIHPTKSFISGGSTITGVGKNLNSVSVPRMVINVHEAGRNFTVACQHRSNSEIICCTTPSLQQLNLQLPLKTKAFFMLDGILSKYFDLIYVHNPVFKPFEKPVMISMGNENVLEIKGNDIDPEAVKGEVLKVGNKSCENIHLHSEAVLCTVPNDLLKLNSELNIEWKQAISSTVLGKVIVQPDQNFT

B1: KB_A12_cMET_F05 (scFv, V domains shown)
VH: EVQLVESGGGLVRPGGSLRLSCAASGFTFSSYAMSWVRQAPGKGLEWVSAISGSGGSTYYADSVKGRFTISRDNTKNSLYLQMTSLRADDTAFYYCVKDFGPGYGTGWFDYWGPGTLVTVSS
VL: AVNWYQQLPGKAPKLLIYAAGRCKRLMSGAGRCKQDSDCLAGCVCGPNGFCGANSGVSDRFSAAKSGTSASLAINGLRSEDEADYYCAAWDDSLNGYVFGTGTKLTVLG
Consider B1, for which the TRF signal was found to be 59600.

B2: KB_A12_cMET_H08 (scFv, V domains shown)
VH: EVQLVESGGGLVRPGGSLRLSCAASGFTFSSYAMSWVRQAPGKGLEWVSAISGSGGSTYYADSVKGRFTISRDNTKNSLYLQMTSLRADDTAFYYCVKDFGPGYGTGWFDYWGPGTLVTVSS
VL: AVNWYQQLPGKAPKLLIYAAGRCQTGRSGTGRCKQDSDCLAGCVCGPNGFCGANSGVSDRFSAAKSGTSASLAINGLRSEDEADYYCAAWDDSLNGYVFGTGTKLTVLG
As to B2, the TRF signal was 6730.
